The source of these data is patent US20040106120A1, “Diagnosis and treatment of disease” (priority 2000, published 2004).

In assay [1] the target is T1, Corneodesmosin (Homo sapiens, UniProt Q15517).
T1 construct: The native form of corneodesmosin has a molecular weight of between 50 and 56 kDa; from tissue; host or cells: human epidermis (TENP-40 buffer extract)
T1 sequence (Q15517 33-529): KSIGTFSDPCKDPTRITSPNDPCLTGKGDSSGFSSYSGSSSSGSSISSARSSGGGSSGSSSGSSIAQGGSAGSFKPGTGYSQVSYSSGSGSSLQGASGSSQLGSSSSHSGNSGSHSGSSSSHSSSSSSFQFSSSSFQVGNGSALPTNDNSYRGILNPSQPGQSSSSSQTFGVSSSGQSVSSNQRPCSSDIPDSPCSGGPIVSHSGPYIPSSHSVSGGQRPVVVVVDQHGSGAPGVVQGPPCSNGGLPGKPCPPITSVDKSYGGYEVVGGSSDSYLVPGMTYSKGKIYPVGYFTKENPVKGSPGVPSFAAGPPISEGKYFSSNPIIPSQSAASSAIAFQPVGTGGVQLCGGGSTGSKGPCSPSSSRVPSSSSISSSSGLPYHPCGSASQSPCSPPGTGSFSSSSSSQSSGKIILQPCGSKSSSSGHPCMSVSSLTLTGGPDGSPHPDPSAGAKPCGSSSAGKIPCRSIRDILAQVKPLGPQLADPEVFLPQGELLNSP
The experiment in a line: Cleavage of adhesion proteins from human epidermis by recombinant SCCE/SCTE (immunoblot). As to conditions: human epidermis protein extract incubated with active recombinant enzyme at 37 C. Format: biochemical. The procedure:
(§1) Recombinant ProSCCE is produced and purified as described above. Recombinant ProSCCE is activated with agarose-bound trypsin, as described in Brasttsand & Egelrud, 1999.
(§2) Proteins are extracted from human epidermis in the presence of a detergent (TENP-40 buffer extract) and incubated with active SCCE for 37 C. for 4 h. The reactions are stopped by boiling for 2 mins after Laemmli's sample buffer is added. The proteins are immunoblotted with antibodies against corneodesmosomal proteins.

Assay [2] concerns Desmoglein. Described as above. Format: biochemical. To be noted: human epidermis protein extract incubated with active recombinant enzyme at 37 C. As for the experimental part: as §1, §2
Assay [3] relates to Desmoplakin. The description is as above. It counts as biochemical. As to conditions: human epidermis protein extract incubated with active recombinant enzyme at 37 C. The procedure: as §1, §2
Assay [4] deals with Desmocollin. The assay is described as above. It counts as biochemical. To be noted: human epidermis protein extract incubated with active recombinant enzyme at 37 C. As for the experimental part:
as §1, §2

Assay [5] has as its target T2, Plakoglobin (Homo sapiens, UniProt P14923).
T2 construct: The native form of plakoglobin has a molecular weight of between 85 kDa and 75 kDa; from tissue; host or cells: human epidermis (TENP-40 buffer extract)
T2 sequence (P14923 1-745): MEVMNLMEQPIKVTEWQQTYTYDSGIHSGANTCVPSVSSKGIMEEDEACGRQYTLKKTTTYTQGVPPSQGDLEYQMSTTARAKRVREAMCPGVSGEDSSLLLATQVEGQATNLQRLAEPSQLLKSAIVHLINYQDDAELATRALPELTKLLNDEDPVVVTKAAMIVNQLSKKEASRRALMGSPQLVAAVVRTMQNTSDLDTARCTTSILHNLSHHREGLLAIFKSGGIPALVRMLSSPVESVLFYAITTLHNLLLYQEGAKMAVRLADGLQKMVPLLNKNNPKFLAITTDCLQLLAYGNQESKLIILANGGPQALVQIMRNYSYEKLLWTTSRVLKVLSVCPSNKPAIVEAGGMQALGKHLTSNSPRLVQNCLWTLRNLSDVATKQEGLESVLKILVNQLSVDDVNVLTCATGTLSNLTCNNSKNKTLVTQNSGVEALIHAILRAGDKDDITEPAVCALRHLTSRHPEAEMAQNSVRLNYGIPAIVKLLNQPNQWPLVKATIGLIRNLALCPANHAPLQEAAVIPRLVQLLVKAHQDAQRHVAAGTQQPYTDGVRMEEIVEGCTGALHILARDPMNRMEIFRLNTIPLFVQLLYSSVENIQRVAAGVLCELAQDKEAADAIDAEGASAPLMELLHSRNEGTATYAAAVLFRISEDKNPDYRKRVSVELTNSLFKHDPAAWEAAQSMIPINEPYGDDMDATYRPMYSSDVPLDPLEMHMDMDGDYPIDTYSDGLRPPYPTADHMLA
Described as above. Format: biochemical. As to conditions: human epidermis protein extract incubated with active recombinant enzyme at 37 C. The procedure: as §1, §2

Assay [6] concerns the target T3, Envoplakin (Homo sapiens, UniProt Q92817).
T3 construct: The native form of Envoplakin has a molecular weight of between 124-209 kDa; from tissue; host or cells: human epidermis (TENP-40 buffer extract)
The description is as above. Format: biochemical. As to conditions: human epidermis protein extract incubated with active recombinant enzyme at 37 C. The procedure:
as §1, §2

Assay [7] concerns corneodesmosomes in stratum corneum tape strips. The experiment in a line: Treatment of tape strips from psoriatic skin with proteases, corneodesmosome density by electron microscopy. Also noted: species or system human. As to conditions: 22-50 nM recombinant SCCE or SCTE, 1-6 h at 37° C. As for the experimental part: Tape strips are obtained according to a method described by Guerrin et al, 1998.
Small pieces of tape strips from control patients along with patients suffering from the skin conditions eczema, psoriasis, dermatitis and psoriasis are fixed for 2 h at 4° C. in Karnovsky fixative (2% paraformaldehyde, 2.5% gluteraldehyde in 0.1M phosphate buffer, pH 7.4). The samples are then washed three times in 0.1M phosphate buffer (pH7.4) containing 10% sucrose for 30 minutes each at 4° C.
Secondary fixation is carried out in aqueous 2% osmium tetroxide solution for 1 hour at room temperature. Dehydration is through a graded series of ethanol at room temperature (75% ethanol for 15 minutes; 95% ethanol for 15 minutes; 2 washes of 100% ethanol for 15 minutes; 100% ethanol dried over anhydrous copper sulphate for 15 minutes).
For resin embedding, samples are first placed in the intermediate solvent, propylene oxide, for two changes of 15 minutes duration. This is followed by infiltration in a 50:50 mixture of propylene oxide:araldite resin overnight at room temperature. […]
Ultrathin sections (70-90 nm) are cut on an ultramicrotome. […] Electron micrographs are recorded on Agfa Scientific 23D56 EM film.
Corneodesmosome density (area occupied by corneodesmosomes divided by total area of micrograph) is measured on electron micrographs of tape strips of each condition. […]

For assay [8], the system named is cultured skin equivalent. The experiment in a line: Treatment of skin equivalents with other protease inhibitors for 24 h, light and electron microscopy. It counts as cell-based. As to conditions: SLPI 500 nM, cultured for 24 h. The procedure:
Skin equivalent (+ and − inhibitor) is cultured with the inhibitor for 24 h. Skin equivalent are taken the preparation of histological sections. Sections are then analysed by light and electron microscopy.
SLPI (500 nM) is added to cultured skin equivalent, and cultured for 24 h. Skin equivalent (+ and − SLPI) are taken the preparation of sections. Sections are then analysed in light and electron microscopy.
SCCE antibody is added is added to cultured skin equivalent, and cultured for 24 h. Skin equivalent (+ and − SCCE antibodies) are taken the preparation of sections. Sections are then analysed in light and electron microscopy.
SCTE antibody is added is added to cultured skin equivalent, and cultured for 24 h. Skin equivalent (+ and − SCTE antibodies) are taken the preparation of sections. Sections are then analysed in light and electron microscopy.

Assay [9] in a line: Topical protease inhibitor in emollient cream on volunteer's arm skin for 14 days, biopsy histology. It counts as in vivo. To be noted: human volunteer, emollient cream applied daily to arm for 14 days under occlusion. The text has this:
SPLI protease inhibitor is extracted from normal human skin of a volunteer. Alternatively, a nucleic acid sequence encoding the protease inhibitor from the individual is cloned using PCR, or library screening. The individual's protease inhibitor sequence is cloned into an expression vector, and recombinant protease inhibitor expressed and purified using conventional and known means.
The inhibitor is then formulated in an emollient cream base. Two fingertip units of this formulation are applied to an area of the volunteer's skin on the arm measuring 2×2 cm. The area is covered with a plastic capsule which is secured in place with a cotton bandage. The cream is reapplied to the same area each day for 14 consecutive days.
On day 14 the cup is removed and a 1×0.5 cm ellipse skin biopsy is taken from the treated area and a similar biopsy taken from an untreated area on the opposite arm.

T3 sequence (Q92817 whole entry): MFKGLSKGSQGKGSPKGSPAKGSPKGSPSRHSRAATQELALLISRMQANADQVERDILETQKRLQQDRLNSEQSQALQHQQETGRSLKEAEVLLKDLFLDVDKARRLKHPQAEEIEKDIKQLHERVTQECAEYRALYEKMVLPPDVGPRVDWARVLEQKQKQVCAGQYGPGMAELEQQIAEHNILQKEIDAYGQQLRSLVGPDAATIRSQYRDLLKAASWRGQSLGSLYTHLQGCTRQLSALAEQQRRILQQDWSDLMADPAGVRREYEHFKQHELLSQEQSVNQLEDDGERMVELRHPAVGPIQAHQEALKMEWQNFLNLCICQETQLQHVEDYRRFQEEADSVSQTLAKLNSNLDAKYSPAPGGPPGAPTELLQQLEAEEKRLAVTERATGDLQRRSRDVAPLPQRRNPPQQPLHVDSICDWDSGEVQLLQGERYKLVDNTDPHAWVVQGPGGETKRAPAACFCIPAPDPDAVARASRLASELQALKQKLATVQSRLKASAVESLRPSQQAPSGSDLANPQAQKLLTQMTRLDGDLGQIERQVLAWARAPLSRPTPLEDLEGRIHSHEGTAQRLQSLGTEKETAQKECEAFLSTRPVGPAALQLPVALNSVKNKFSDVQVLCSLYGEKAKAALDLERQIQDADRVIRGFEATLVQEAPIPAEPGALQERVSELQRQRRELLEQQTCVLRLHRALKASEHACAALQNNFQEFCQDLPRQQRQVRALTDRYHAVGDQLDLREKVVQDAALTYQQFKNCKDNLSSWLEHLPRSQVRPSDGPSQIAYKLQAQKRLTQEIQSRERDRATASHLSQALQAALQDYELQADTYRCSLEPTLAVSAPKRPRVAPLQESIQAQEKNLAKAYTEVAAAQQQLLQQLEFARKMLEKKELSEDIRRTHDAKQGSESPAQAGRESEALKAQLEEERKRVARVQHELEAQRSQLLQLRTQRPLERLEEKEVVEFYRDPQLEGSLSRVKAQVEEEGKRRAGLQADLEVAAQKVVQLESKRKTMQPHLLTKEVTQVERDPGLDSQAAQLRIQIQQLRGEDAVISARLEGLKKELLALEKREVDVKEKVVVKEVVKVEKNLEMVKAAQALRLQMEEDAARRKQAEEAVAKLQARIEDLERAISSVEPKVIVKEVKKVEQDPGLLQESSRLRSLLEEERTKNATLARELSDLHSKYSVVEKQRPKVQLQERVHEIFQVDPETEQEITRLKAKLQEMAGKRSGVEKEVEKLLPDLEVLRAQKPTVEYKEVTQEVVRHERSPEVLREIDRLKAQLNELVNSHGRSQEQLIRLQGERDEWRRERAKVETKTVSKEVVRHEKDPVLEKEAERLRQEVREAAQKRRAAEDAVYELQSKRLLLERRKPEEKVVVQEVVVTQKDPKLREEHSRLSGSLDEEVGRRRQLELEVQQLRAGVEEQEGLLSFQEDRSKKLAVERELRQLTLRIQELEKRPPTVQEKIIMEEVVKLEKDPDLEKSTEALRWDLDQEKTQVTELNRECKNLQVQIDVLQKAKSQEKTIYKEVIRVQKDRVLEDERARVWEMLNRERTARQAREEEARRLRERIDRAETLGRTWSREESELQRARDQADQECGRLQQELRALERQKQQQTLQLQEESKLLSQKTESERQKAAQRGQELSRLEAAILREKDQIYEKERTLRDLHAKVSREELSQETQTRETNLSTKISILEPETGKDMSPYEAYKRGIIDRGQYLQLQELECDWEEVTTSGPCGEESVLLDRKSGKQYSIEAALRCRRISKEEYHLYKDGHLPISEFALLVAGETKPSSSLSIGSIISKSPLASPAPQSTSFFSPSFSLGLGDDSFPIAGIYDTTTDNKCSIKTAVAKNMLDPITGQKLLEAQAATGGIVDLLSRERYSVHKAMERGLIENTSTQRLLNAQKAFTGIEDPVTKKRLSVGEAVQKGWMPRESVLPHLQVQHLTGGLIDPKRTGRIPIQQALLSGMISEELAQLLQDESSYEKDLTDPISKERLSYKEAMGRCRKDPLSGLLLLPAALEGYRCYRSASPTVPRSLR

B1: SCCE: recombinant Stratum Corneum Chymotryptic Enzyme, activated with agarose-bound trypsin (protein, UniProt P49862 30-253, looked up)
Kallikrein-7: IIDGAPCARGSHPWQVALLSGNQLHCGGVLVNERWVLTAAHCKMNEYTVHLGSDTLGDRRAQRIKASKSFRHPGYSTQTHVNDLMLVKLNSQARLSSMVKKVRLPSRCEPPGTTCTVSGWGTTTSPDVTFPSDLMCVDVKLISPQDCTKVYKDLLENSMLCAGIPDSKKNACNGDSGGPLVCRGTLQGLVSWGTFPCGQPNDPGVYTQVCKFTKWINDTMKKHR
modifications: activated with trypsin
As to B1, the “proteolysis of Corneodesmosin” value in assay [1] is listed as “proteolysed”. Also, in assay [2], the “proteolysis of Desmoglein” value is on record as “proteolysed”. In assay [3], the “proteolysis of Desmoplakin” value was “proteolysed”. Further, the “proteolysis of Desmocollin” value in [4] is recorded as “proteolysed”. The “proteolysis of Plakoglobin” value in assay [5] is given as “proteolysed”. Moreover, the “proteolysis of Envoplakin” value in assay [6] is reported as “proteolysed”. Also, the “number of corneodesmosomes in treated versus untreated stratum corneum” value in assay [7] is reported as “decrease significantly”.

B2: SLPI: Secretory Leukoprotease Inhibitor protein added to cultured skin equivalent (protein, UniProt P03973 26-132, looked up)
Antileukoproteinase: SGKSFKAGVCPPKKSAQCLRYKKPECQSDWQCPGKKRCCPDTCGIKCLDPVDTPNPTRRKPGKCPVTYGQCLMLNPPNFCEMDGQCKRDLKCCMGMCGKSCVSPVKA
B2: the “effect on stratum corneum thickness and skin barrier of skin equivalent” value in [8] is “increase the thickness of the stratum corneum”.

B3: SPLI protease inhibitor: SLPI extracted from normal human skin or recombinant, formulated in an emollient cream base (protein, UniProt P03973 26-132, looked up)
Antileukoproteinase: SGKSFKAGVCPPKKSAQCLRYKKPECQSDWQCPGKKRCCPDTCGIKCLDPVDTPNPTRRKPGKCPVTYGQCLMLNPPNFCEMDGQCKRDLKCCMGMCGKSCVSPVKA
modifications: emollient cream formulation
notes: SLPI extracted from normal human skin or recombinant, formulated in an emollient cream base
With B3, in assay [9], the “histology of stratum corneum, treated biopsy compared with control” value was “thickening of the stratum corneum with loosely adherent scales”; the “histology of viable epidermis, treated biopsy compared with control” value is “parakeratosis and thickening”.
